Test results: PMC2970701 (DNA repair, 2010)

Target: S. cerevisiae ubiquitin (S. cerevisiae, UniProt P0CG63 1-76)
Experiment: NMR titration

S. cerevisiae ubiquitin, sequence (P0CG63 1-76): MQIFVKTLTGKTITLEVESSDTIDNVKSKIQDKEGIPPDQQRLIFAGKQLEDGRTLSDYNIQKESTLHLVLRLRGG

B1: UBZ domain of S. cerevisiae polymerase η (domain or fragment)
chain: TTSSKADEKTPKLECCKYQVTFTDQKALQEHADYHLALKLSEGLNGAEESSKNLSFGEKRLLF
- binding result: binds
